Two molecules from paper PMC7498065, “Isolation of antigen-specific, disulphide-rich knob domain peptides from bovine antibodies” (PLoS Biology, 2020) can be followed below.

Like-named read-outs stand apart in the source and are kept apart here. Where only a bound is given, the exact number is not on record here.

Experiment [1] concerns the target Complement component C5 (Homo sapiens, UniProt P01031). Kind of experiment: Biacore SPR single-cycle kinetics of PGT121 Fab-knob domain fusion proteins binding to C5. Particulars: for Mean kon: C5 amine-coupled on CM5 chip, analyte 1.37 nM-1 µM in HBS-EP; for Mean Stoichiometric ratio at 1 µM: SPR, analyte 1 µM. The protocol: For PGT121 fusion proteins, flow cells were activated using a minimal immobilisation protocol: EDC/NHS was mixed at 1:2 ratio (flow rate, 10 μL/min; contact time, 30 s). C5, at 1 μg/mL in pH 4.5 sodium-acetate buffer, was immobilized on flow cell 2 only (flow rate, 10 μL/min; contact time, 420 s). Finally, ethanolamine was applied to both flow cells (flow rate, 10 μL/min; contact time, 420 s).
For knob domain peptides, flow cells were activated using a standard immobilisation protocol: EDC/NHS was mixed at 1:1 ratio (flow rate, 10 μL/min; contact time, 30 s). C5, at 1 μg/mL in pH 4.5 sodium-acetate buffer, was immobilized on flow cell 2 only (flow rate, 10 μL/min; contact time, 420 s). Finally, ethanolamine was applied to both flow cells (flow rate, 10 μL/min; contact time, 420 s). […] For the PGT121-K149 fusion protein and K149 knob domain, the same immobilisation protocols were used but with a 750 ng/mL solution of C5, instead of 1 μg/mL.
One-micromolar stock solutions of the analytes (PGT121 knob domain fusion proteins and free knob domain peptides) were prepared in HBS-EP buffer. A series of six 3-fold dilutions of each stock solution was prepared in the same buffer. The result was 7 solutions for each analyte, at concentrations ranging from 1 μM down to 1.37 nM. A high flow rate of 40 μL/min was used, with a contact time of 230 s and a dissociation time of 1,800 s for knob domain peptides and 10,000 s for PGT121 knob domain fusion proteins. For the PGT121-K149 fusion protein and K149 knob domain, the flow rate was further increased to 100 μL/min. Binding to the reference surface was subtracted, and the data were fitted to a single-site binding model using Biacore evaluation software. Data were inspected for evidence of mass transport limitation using the flow-rate–independent component of the mass transfer constant (tc).
(In general: In SPR one partner is held on a chip, and binding of the other changes the refractive index at the surface.)

Experiment [2] addresses C5 (Homo sapiens, UniProt P01031). The experiment can be described thus: Steady state FRET binding assay, AF647-labelled PGT121 knob fusion proteins binding to C5-Tb (KD app). As to conditions: C5-Tb 1 nM.
Setting [3] is: 2 hour incubation, experiment n2, read-out: KD app.
Where [4] appears, read: 2 hour incubation, experiment n3, read-out: KD app.
The mark [5] stands for this setting: 2 hour incubation, geomean of n=3, read-out: Geomean KD app.
Setting [6] is: 24 hour incubation, experiment n2, read-out: KD app.
The mark [7] stands for this setting: 24 hour incubation, experiment n3, read-out: KD app.
[8] abbreviates: 24 hour incubation, geomean of n=3, read-out: Geomean KD app.

Chain of Complement component C5 (P01031 19-673 limits assumed): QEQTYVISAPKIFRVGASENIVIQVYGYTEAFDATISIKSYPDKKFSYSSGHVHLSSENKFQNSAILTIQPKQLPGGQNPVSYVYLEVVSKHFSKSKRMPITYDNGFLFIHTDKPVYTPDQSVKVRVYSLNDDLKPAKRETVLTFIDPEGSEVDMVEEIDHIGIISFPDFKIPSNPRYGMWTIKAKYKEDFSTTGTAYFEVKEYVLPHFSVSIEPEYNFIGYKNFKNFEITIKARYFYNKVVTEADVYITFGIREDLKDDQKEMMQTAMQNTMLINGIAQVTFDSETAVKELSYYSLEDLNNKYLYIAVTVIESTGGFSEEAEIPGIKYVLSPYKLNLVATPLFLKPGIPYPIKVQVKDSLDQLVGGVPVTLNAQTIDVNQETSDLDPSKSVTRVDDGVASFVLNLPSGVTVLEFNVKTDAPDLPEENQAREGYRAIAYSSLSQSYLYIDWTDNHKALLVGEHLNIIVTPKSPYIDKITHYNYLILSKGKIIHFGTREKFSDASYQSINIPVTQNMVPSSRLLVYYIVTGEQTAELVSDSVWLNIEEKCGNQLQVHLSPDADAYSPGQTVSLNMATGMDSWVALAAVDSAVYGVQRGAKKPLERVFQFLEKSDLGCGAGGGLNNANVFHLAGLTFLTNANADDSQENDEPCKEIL
Chain of Complement component C5 (P01031 678-1676 limits assumed): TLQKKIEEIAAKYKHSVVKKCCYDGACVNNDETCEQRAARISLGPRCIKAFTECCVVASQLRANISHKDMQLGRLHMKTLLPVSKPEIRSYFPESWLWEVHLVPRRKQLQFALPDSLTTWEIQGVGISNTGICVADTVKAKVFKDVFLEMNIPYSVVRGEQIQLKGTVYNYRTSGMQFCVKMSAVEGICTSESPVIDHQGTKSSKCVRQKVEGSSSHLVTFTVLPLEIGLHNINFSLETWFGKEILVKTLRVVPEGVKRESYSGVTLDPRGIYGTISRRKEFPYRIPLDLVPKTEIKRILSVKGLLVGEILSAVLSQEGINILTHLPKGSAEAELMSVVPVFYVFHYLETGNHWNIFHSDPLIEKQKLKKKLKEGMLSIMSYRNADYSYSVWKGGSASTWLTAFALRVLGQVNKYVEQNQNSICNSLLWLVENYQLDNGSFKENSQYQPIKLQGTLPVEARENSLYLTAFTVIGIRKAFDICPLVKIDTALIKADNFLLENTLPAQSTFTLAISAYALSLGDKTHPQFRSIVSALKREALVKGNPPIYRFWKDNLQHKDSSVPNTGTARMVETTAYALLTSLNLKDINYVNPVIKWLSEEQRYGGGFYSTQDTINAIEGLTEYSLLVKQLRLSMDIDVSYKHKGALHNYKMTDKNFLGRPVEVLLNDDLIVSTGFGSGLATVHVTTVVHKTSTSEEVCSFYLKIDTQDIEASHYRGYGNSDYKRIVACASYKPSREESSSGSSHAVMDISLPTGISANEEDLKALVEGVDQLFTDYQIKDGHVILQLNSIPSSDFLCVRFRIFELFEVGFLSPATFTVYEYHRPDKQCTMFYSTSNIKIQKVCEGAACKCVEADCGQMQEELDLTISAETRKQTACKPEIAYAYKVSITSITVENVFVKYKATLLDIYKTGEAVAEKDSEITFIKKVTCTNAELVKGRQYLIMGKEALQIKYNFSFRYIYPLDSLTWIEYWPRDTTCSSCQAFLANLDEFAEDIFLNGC
Chain of C5 (P01031 19-673 limits assumed): as the sequence (P01031 19-673 limits assumed) above
Chain of C5 (P01031 678-1676 limits assumed): as the sequence (P01031 678-1676 limits assumed) above

B1: PGT121-K136: human Fab PGT121 with the K136 knob domain inserted into CDRH3, flanked by TEV protease sites (antibody)
VH: QMQLQESGPGLVKPSETLSLTCSVSGASISDSYWSWIRRSPGKGLEWIGYVHKSGDTNYSPSLKSRVNLSLDTSKNQVSLSLVAATAADSGKYYCARTLHGRRIYGSENLYFQGTCPDNYREVDGCDPYDCCLTTWCTNSYCTRYIENLYFQGSEWFTYFYMDVWGNGTQVTVSS
VL: QSVLTQPPDISVAPGETARISCGEKSLGSRAVQWYQHRAGQAPSLIIYNNQDRPSGIPERFSGSPDSPFGTTATLTITSVEAGDEADYYCHIWDSRVPTKWVFGGGTTLTVL
A word on the kon: it is the second-order rate constant of association. Lower therefore signals slow association. For B1, the Mean kon in experiment [1] (1:1 model, mean of n=3) turned out to be 4760 M⁻¹ s⁻¹. For the same molecule, the Kd in experiment [1] (SPR single-cycle kinetics, 1:1 model, mean of n=3, read-out: Mean KD) was less than 2.19 nM; in experiment [1] (occasion n=1, read-out: KD), less than 1.82 nM; in experiment [1] (occasion n=2, read-out: KD), less than 2.84 nM; in experiment [1] (occasion n=3, read-out: KD), less than 1.89 nM; in experiment [2] (setting [3]), 46.3 nM; in experiment [2] (setting [4]), 115 nM. The Kd in experiment [2] (setting [5]) came to 73 nM; in experiment [2] (setting [6]) it was 23.4 nM; in experiment [2] (setting [7]), 58.1 nM; in experiment [2] (setting [8]), 39.8 nM. Moreover, the “Mean Stoichiometric ratio at 1 µM” value in experiment [1] (mean of n=3) amounted to 0.8. Moreover, the “off rate (koff)” value in experiment [1] (exceeded the limit for koff determination by Biacore) was less than 1e-05 s⁻¹. In addition, the Rmax in experiment [1] (occasion n=1) is listed as 38.9 RU; in experiment [1] (occasion n=2), 38.4 RU; in experiment [1] (occasion n=3), 40.4 RU. Further, the figures for the “Stoichiometric ratio at 1 µM” value in experiment [1] (occasion n=1), in experiment [1] (occasion n=2) and in experiment [1] (occasion n=3) were 0.82, 0.8 and 0.9, respectively. Further, the kon in experiment [1] (occasion n=1) was 5480 M⁻¹ s⁻¹; in experiment [1] (occasion n=2), 3520 M⁻¹ s⁻¹; in experiment [1] (occasion n=3) it was 5280 M⁻¹ s⁻¹.

B2: PGT121-K149: human Fab PGT121 with the K149 knob domain inserted into CDRH3, flanked by TEV protease sites (antibody)
VH: QMQLQESGPGLVKPSETLSLTCSVSGASISDSYWSWIRRSPGKGLEWIGYVHKSGDTNYSPSLKSRVNLSLDTSKNQVSLSLVAATAADSGKYYCARTLHGRRIYGSENLYFQGSCPDGFSYRSWDDFCCPMVGRCLAPRNGSENLYFQGSEWFTYFYMDVWGNGTQVTVSS
VL: QSVLTQPPDISVAPGETARISCGEKSLGSRAVQWYQHRAGQAPSLIIYNNQDRPSGIPERFSGSPDSPFGTTATLTITSVEAGDEADYYCHIWDSRVPTKWVFGGGTTLTVL
What is called koff is a measure of how fast the partners let go of each other. For B2, the Mean kon in experiment [1] (1:1 model, mean of n=3) came out at 3750 M⁻¹ s⁻¹. The Mean koff in experiment [1] (SPR single-cycle kinetics, 1:1 model, mean of n=3, koff capped at 1.00E-05 s^-1) came to 0.00164 s⁻¹. Further, the “Mean Stoichiometric ratio at 1 µM” value in experiment [1] (mean of n=3) is on record as 0.5. For the same molecule, the Rmax was determined as 13.00 RU in experiment [1] (occasion n=1), 10.00 RU in experiment [1] (occasion n=2) and 10.00 RU in experiment [1] (occasion n=3). Besides, the “Stoichiometric ratio at 1 µM” value is on record as 0.5 in experiment [1] (occasion n=1), 0.5 in experiment [1] (occasion n=2) and 0.4 in experiment [1] (occasion n=3). Besides, the koff in experiment [1] (occasion n=1) turned out to be 0.00149 s⁻¹; in experiment [1] (occasion n=2), 0.00162 s⁻¹; in experiment [1] (occasion n=3), 0.00181 s⁻¹. Besides, the results for the kon in experiment [1] (occasion n=1), in experiment [1] (occasion n=2) and in experiment [1] (occasion n=3) were 5270 M⁻¹ s⁻¹, 3840 M⁻¹ s⁻¹ and 2150 M⁻¹ s⁻¹, respectively. The Kd came out at 283 nM in experiment [1] (occasion n=1, read-out: KD); 425 nM in experiment [1] (occasion n=2, read-out: KD); 842 nM in experiment [1] (occasion n=3, read-out: KD); 34.9 nM in experiment [2] (2 hour incubation, experiment n1, read-out: KD app); 57.6 nM in experiment [2] (setting [3]); 30.1 nM in experiment [2] (setting [4]). Further, the Kd stood at 39.3 nM in experiment [2] (setting [5]); 127 nM in experiment [2] (24 hour incubation, experiment n1, read-out: KD app); 90.6 nM in experiment [2] (setting [6]); 24.9 nM in experiment [2] (setting [7]); 65.9 nM in experiment [2] (setting [8]).
